Reference: patent US20080213273A1

Columns and labels:
[1] = target: human CD20 (on the human B-cell lymphoma cell line WIL2-S and other CD20+ human B-cell lines) (human) (UniProt P11836); test: cell-based or functional assay
[2] = target: monkey CD20 (on monkey peripheral blood cells) (monkey) (UniProt M4ZHZ6); test: flow cytometry on monkey peripheral blood, N = 3, mean (SD 3.3); control column 0.2 (0.1)
Sequence of UniProt M4ZHZ6 (M4ZHZ6 entry or part of it limits assumed): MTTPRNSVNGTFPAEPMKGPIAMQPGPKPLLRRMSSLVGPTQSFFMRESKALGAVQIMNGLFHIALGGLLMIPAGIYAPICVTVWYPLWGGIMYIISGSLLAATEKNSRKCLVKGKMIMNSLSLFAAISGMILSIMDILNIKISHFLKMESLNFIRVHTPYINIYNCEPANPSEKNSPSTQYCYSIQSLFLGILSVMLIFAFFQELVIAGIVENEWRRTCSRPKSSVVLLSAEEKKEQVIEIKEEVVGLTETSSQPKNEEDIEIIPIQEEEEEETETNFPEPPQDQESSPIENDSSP

Sequence of UniProt P11836 (P11836 whole entry): as the sequence (M4ZHZ6 entry or part of it limits assumed) above, with P25S, L31F, A51T, V157A, R217K, S226N, V227I, V239T counted along it

apoptosis of Ramos B-cells, annexin V/propidium iodide flow cytometry [1]: 60 % cell lysis
percent positive staining cells [2]: 21.5%
Substance: rituximab (antibody)
